Where a chain is given by its changes, count along the chain named.
Tests used:
[1] = biological target: T1, human HER3 endogenously expressed on human cancer cells (SK-Br-3, BT-474, MCF7) (human, UniProt P21860 20-1342); assay: cell-based or functional assay
[2] = biological target: T2, Rat HER3: CD33-[Rat HER3, residues 20-643]-TAG (rat, UniProt Q62799 20-643); assay: solution equilibrium titration (SET), IgG, ECL read-out
T2 construct: also called ra HER3-Tag; not shown: C-terminal TAG (e.g. FLAG TAG)

[3] = biological target: T3, Hu HER3: CD33-[Human HER3, residues 20-640]-TAG (human, UniProt P21860 20-640); assay: as above
T3 construct: also called hu HER3-Tag; HER3-Tag; not shown: C-terminal TAG (e.g. FLAG TAG)

[4] = biological target: T4, Cyno HER3: CD33-[Cyno HER3, residues 20-643]-TAG (cynomolgus monkey, UniProt G7PIG5 20-643); assay: as above
T4 construct: also called cy HER3-Tag; not shown: C-terminal TAG (e.g. FLAG TAG)

[5] = biological target: T5, Mu HER3: CD33-[Murine HER3, residues 20-643]-TAG (mouse, UniProt Q61526 20-643); assay: as above
T5 construct: also called mu HER3-Tag; not shown: C-terminal TAG (e.g. FLAG TAG)

[6] = biological target: T1, human HER3 endogenously expressed on …; assay: cell-based or functional assay; remark: listed apart in the source
[7] = biological target: T1, human HER3 endogenously expressed on …; assay: cell-based or functional assay; remark: listed apart in the source
[8] = biological target: T1, human HER3 endogenously expressed on …; assay: FACS titration of IgG on SK-Br-3 cells (endogenous HER3)
Description: The binding of antibodies to endogenous human antigen expressed on human cancer cells was accessed by FACS. In order to determine antibody EC₅₀ values SK-Br-3 cells were harvested with accutase and diluted to 1×10⁶ cells/mL in FACS buffer (PBS/3% FBS/0.2% NaN₃). 1×10⁵ cells/well were added to each well of a 96-well plate (Nunc) and centrifuged at 210 g for 5 minutes at 4° C. before removing the supernatant. Serial dilutions of test antibodies (diluted in 1:4 dilution steps with FACS buffer) were added to the pelleted cells and incubated for 1 hour on ice. The cells were washed and pelleted three times with […] FACS buffer. PE conjugated goat anti-human IgG (Jackson ImmunoResearch) diluted 1/200 with FACS buffer were added to the cells and incubated on ice for 1 hour. Additional washing steps were performed three times with 100 μL FACS buffer followed by centrifugation steps at 210 g for 5 minutes at 4° C. Finally, cells were resuspended in 200 μL FACS buffer and fluorescence values were measured with a FACSArray (BD Biosciences). The amount of cell surface bound anti-HER3 antibody was assessed by measuring the mean channel fluorescence.

B1: MOR12603 (antibody, human IgG1, kappa, V domains shown)
VH: QVQLVQSGAEVKKPGSSVKVSCKASGGTFSSYAISWVRQAPGQGLEWMGLIIPRYGKARYAQKFQGRVTITADESTSTAYMELSSLRSEDTAVYYCARNWPYYYMDFWGQGTLVTVSS
VL: DIVLTQSPATLSLSPGERATLSCRASQNIVFNLAWYQQKPGQAPRLLIYDASNRATGVPARFSGSGSGTDFTLTISSLEPEDFAVYYCQQTKNRPPTFGQGTKVEIKR
notes: Tested as IgG
BT-474 pAkt % inhibition [1]: 77%
BT-474 pAkt IC50 [1]: 137 pM
SK-Br-3 pAkt % inhibition [1]: 84%
SK-Br-3 pAkt IC50 [1]: 17 pM
Kd [2]: 11 nM
Kd [3]: 2 nM
Kd [4]: 6.1 nM
Kd [5]: 4.1 nM
BT-474 proliferation % inhibition [6]: 37%
BT-474 proliferation IC50 [6]: 136 pM
MCF7 proliferation % inhibition [6]: 44%
MCF7 proliferation IC50 [6]: 58 pM
SK-Br-3 proliferation % inhibition [6]: 36%
SK-Br-3 proliferation IC50 [6]: 34 pM
BT474 pHER3 % inhibition [7]: 70%
BT474 pHER3 IC50 [7]: 79 pM
MCF7 pHER3 % inhibition [7]: 77%
MCF7 pHER3 IC50 [7]: 11 pM
SK-Br-3 pHER3 % inhibition [7]: 74%
SK-Br-3 pHER3 IC50 [7]: 18 pM

B2: MOR12606 (antibody, human IgG1, kappa, V domains shown)
VH: B1 VH
VL: DIVLTQSPATLSLSPGERATLSCRASQNIVFNLAWYQQKPGQAPRLLIYDASNRATGVPARFSGSGSGTDFTLTISSLEPEDFAVYYCQQTKSKPSPTFGQGTKVEIKR
notes: Tested as IgG
BT-474 pAkt % inhibition [1]: 77%
BT-474 pAkt IC50 [1]: 91 pM
SK-Br-3 pAkt % inhibition [1]: 85%
SK-Br-3 pAkt IC50 [1]: 8 pM
Kd [2]: 8.1 nM
Kd [3]: 1.5 nM
Kd [4]: 2.6 nM
Kd [5]: 1.4 nM
BT-474 proliferation % inhibition [6]: 40%
BT-474 proliferation IC50 [6]: 127 pM
MCF7 proliferation % inhibition [6]: 39%
MCF7 proliferation IC50 [6]: 52 pM
SK-Br-3 proliferation % inhibition [6]: 36%
BT474 pHER3 % inhibition [7]: 73%
BT474 pHER3 IC50 [7]: 108 pM
MCF7 pHER3 % inhibition [7]: 87%
MCF7 pHER3 IC50 [7]: 34 pM
SK-Br-3 pHER3 % inhibition [7]: 75%
SK-Br-3 pHER3 IC50 [7]: 25 pM

B3: MOR12605 (antibody, human IgG1, kappa, V domains shown)
VH: B1 VH
VL: B1 VL with T91F, K92R, N93R, R94K, P95S, P96N
notes: Tested as IgG
BT-474 pAkt % inhibition [1]: 67%
BT-474 pAkt IC50 [1]: 173 pM
MCF7 pAkt % inhibition [1]: 76%
MCF7 pAkt IC50 [1]: 533 pM
SK-Br-3 pAkt % inhibition [1]: 84%
SK-Br-3 pAkt IC50 [1]: 140 pM
Kd [2]: 9.6 nM
Kd [3]: 1.8 nM
Kd [4]: 2.9 nM
Kd [5]: 2.3 nM
MCF7 proliferation % inhibition [6]: 45%
MCF7 proliferation IC50 [6]: 28 pM
SK-Br-3 proliferation % inhibition [6]: 29%
SK-Br-3 proliferation IC50 [6]: 0.01 pM
BT474 pHER3 % inhibition [7]: 64%
BT474 pHER3 IC50 [7]: 1490 pM
MCF7 pHER3 % inhibition [7]: 89%
MCF7 pHER3 IC50 [7]: 318 pM
SK-Br-3 pHER3 % inhibition [7]: 73%
SK-Br-3 pHER3 IC50 [7]: 7 pM

B4: MOR12514 (antibody, human IgG1, lambda, V domains shown)
VH: QVQLVQSGAEVKKPGASVKVSCKASGYTFTSYDIHWVRQAPGQGLEWMGRIDPYSGNTNYAQKFQGRVTMTRDTSISTAYMELSRLRSEDTAVYYCARGSFYTRDSYFDVWGQGTLVTVSS
VL: DIALTQPASVSGSPGQSITISCTGTSSDVGTYNQVSWYQQHPGKAPKLMIYGVSKRPSGVSNRFSGSKSGNTASLTISGLQAEDEADYYCQVRDMSLFDVFGGGTKLTVLG
notes: Tested as IgG
Kd [3]: 0.97 nM
Kd [4]: 1.4 nM
Kd [5]: 2.4 nM
MCF7 proliferation % inhibition [6]: 29%
MCF7 proliferation IC50 [6]: 317 pM
SK-Br-3 proliferation % inhibition [6]: 36%
SK-Br-3 proliferation IC50 [6]: 44 pM
BT474 pHER3 % inhibition [7]: 70%
BT474 pHER3 IC50 [7]: 707 pM
MCF7 pHER3 % inhibition [7]: 67%
MCF7 pHER3 IC50 [7]: 435 pM
SK-Br-3 pHER3 % inhibition [7]: 77%
SK-Br-3 pHER3 IC50 [7]: 223 pM

B5: MOR12516 (antibody, human IgG1, lambda, V domains shown)
VH: B4 VH
VL: DIALTQPASVSGSPGQSITISCTGTSSDVGTYNQVSWYQQHPGKAPKLMIYGVSKRPSGVSNRFSGSKSGNTASLTISGLQAEDEADYYCQSRDTYRPVKVFGGGTKLTVLG
notes: Tested as IgG
Kd [3]: 1.8 nM
Kd [4]: 3.6 nM
Kd [5]: 3.9 nM
MCF7 proliferation % inhibition [6]: 34%
MCF7 proliferation IC50 [6]: 492 pM
SK-Br-3 proliferation % inhibition [6]: 34%
SK-Br-3 proliferation IC50 [6]: 2080 pM
BT474 pHER3 % inhibition [7]: 63%
MCF7 pHER3 % inhibition [7]: 62%
MCF7 pHER3 IC50 [7]: 590 pM
SK-Br-3 pHER3 % inhibition [7]: 74%
SK-Br-3 pHER3 IC50 [7]: 1870 pM

B6: MOR12921 (antibody, human IgG1, lambda, V domains shown)
VH: B4 VH with S31G, D33Y, I34M, R50D, Y54H, T58A, N59V
VL: B4 VL with Q91S, V92S, M95L, S96I, L97G, F98H, D99Y
notes: Tested as IgG
Kd [2]: 0.69 nM
Kd [3]: 0.15 nM
Kd [4]: 0.6 nM
Kd [5]: 0.56 nM
MCF7 proliferation % inhibition [6]: 31%
MCF7 proliferation IC50 [6]: 2310 pM
SK-Br-3 proliferation % inhibition [6]: 42%
SK-Br-3 proliferation IC50 [6]: 432 pM
BT474 pHER3 % inhibition [7]: 65%
BT474 pHER3 IC50 [7]: 418 pM
MCF7 pHER3 % inhibition [7]: 79%
MCF7 pHER3 IC50 [7]: 1230 pM
SK-Br-3 pHER3 % inhibition [7]: 68%
SK-Br-3 pHER3 IC50 [7]: 252 pM

B7: MOR14538 (antibody, human IgG1, lambda, V domains shown)
VH: B4 VH with E89D
VL: B4 VL with D1Q, I2S, Q91A, V92S, R93A, M95H, L97Y, F98H, D99T
notes: Tested as IgG
EC50 [8]: 0.279 nM
Kd [2]: 0.051 nM
Kd [3]: 0.045 nM
Kd [4]: 0.026 nM
Kd [5]: 0.023 nM
SK-Br-3 proliferation % inhibition [6]: 53%
SK-Br-3 proliferation IC50 [6]: 81 pM
MCF7 pHER3 % inhibition [7]: 83%
MCF7 pHER3 IC50 [7]: 615 pM
SK-Br-3 pHER3 % inhibition [7]: 71%
SK-Br-3 pHER3 IC50 [7]: 263 pM

B8: MOR14537 (antibody, human IgG1, lambda, V domains shown)
VH: B4 VH with E89D
VL: B5 VL with D1Q, I2S, Q91S, R93A, D94T, T95Q, Y96K, R97P, P98D, K100T
notes: Tested as IgG
EC50 [8]: 0.179 nM
Kd [2]: 0.285 nM
Kd [3]: 0.21 nM
Kd [4]: 0.14 nM
Kd [5]: 0.22 nM
SK-Br-3 proliferation % inhibition [6]: 48%
SK-Br-3 proliferation IC50 [6]: 47 pM
MCF7 pHER3 % inhibition [7]: 73%
MCF7 pHER3 IC50 [7]: 200 pM
SK-Br-3 pHER3 % inhibition [7]: 69%
SK-Br-3 pHER3 IC50 [7]: 97 pM

B9: MOR12515 (antibody, human IgG1, lambda, V domains shown)
VH: B4 VH
VL: B4 VL with Q91Y, V92S, M95S, S96P, L97M, F98D, D99Q
notes: Tested as IgG
Kd [3]: 0.87 nM
Kd [4]: 0.72 nM
Kd [5]: 1.5 nM
MCF7 proliferation % inhibition [6]: 26%
MCF7 proliferation IC50 [6]: 1090 pM
SK-Br-3 proliferation % inhibition [6]: 36%
SK-Br-3 proliferation IC50 [6]: 278 pM
BT474 pHER3 % inhibition [7]: 71%
BT474 pHER3 IC50 [7]: 365 pM
MCF7 pHER3 % inhibition [7]: 71%
MCF7 pHER3 IC50 [7]: 674 pM
SK-Br-3 pHER3 % inhibition [7]: 76%
SK-Br-3 pHER3 IC50 [7]: 278 pM
